The results in this text go back to patent WO2021065846A1 (dated 2021).

As usually defined, the Kd is the constant that tells how readily two partners part at equilibrium. A lower Kd goes with a tighter complex.

For assay [1], the target named is T1, anti-HIV-1 V3 antibody 1C10 (0.5γ).
T1 construct: Used as whole bivalent IgG; also called anti-V3 antibody 1C10; 1C10-biotin
Nature of the assay: sandwich ELISA: Fab #92 coated as capture, 1C10, biotinylated IgG #87 as detection. For orientation: ELISA stands for enzyme-linked immunosorbent assay.

The target is the same in assay [2]. The assay can be described thus: inhibition ELISA: biotinylated 1C10 on NNT20 V3 peptide.
For assay [3] the target is unchanged. Nature of the assay: SPR, Biacore T200, biotinylated 1C10 on SA chip, anti-idiotype antibody as analyte.

T1 sequence (VH, as listed by the source, chain 1 of 2): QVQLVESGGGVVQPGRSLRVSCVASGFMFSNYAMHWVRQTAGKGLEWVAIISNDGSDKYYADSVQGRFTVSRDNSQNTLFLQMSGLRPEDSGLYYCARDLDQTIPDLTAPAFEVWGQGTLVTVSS
T1 sequence (VL, as listed by the source, chain 2 of 2): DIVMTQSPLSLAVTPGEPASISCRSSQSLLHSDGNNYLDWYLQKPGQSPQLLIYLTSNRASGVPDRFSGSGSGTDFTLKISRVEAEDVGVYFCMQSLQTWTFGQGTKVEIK

B1: Fab of anti-1C10 idiotype antibody #92 (Fab, V domains shown)
VH: QVQLQQSGAELAKPGASVKMSCKASGYTFTNYWMHWVKQRPGQGLEWIGFINPNTDYTEYNQKFTDKATLTADKSSNTAYMQLSSLTSEDSALYYCAREDTWFAYWGQGTLVTVSA
VL: DIQMTQSPASLSASVGETVTITCRASENIYSYLAWYQQKQGKSPQLLVYNAKALAEGVPSRFSGSGSGTQFSLKINSLQPEDFGSYYCQHHYRTPYAFGGGTKLEIK
notes: VH cloned into a Fab heavy chain expression vector, co-expressed with the light chain vector, purified on His60 Ni resin; also called Fab#92; #92Fab
As to B1, in assay [1], the binding result is reported as “binds”.

B2: anti-1C10 idiotype antibody #92 (IgG) (antibody, V domains shown)
VH: QVQLQQSGAELAKPGASVKMSCKASGYTFTNYWMHWVKQRPGQGLEWIGFINPNTDYTEYNQKFTDKATLTADKSSNTAYMQLSSLTSEDSALYYCAREDTWFAYWGQGTLVTVSA
VL: DIQMTQSPASLSASVGETVTITCRASENIYSYLAWYQQKQGKSPQLLVYNAKALAEGVPSRFSGSGSGTQFSLKINSLQPEDFGSYYCQHHYRTPYAFGGGTKLEIK
notes: Mouse variable regions cloned into human IgG expression vectors (pIgGH, pKVA2); also called clone #92; IgG#92
As to B2, the binding result in assay [2] was “binds”.

B3: anti-1C10 idiotype antibody #87 (IgG) (antibody, V domains shown)
VH: QVQLVETGGGLVRPGNSLKLSCVTSGFTFSTYRMHWLRQPPGKRLEWIAVITVKSDGYGANYAQSLKDRFTISRDDSKSSVFLQMNRLREEDTATYYCSRGPDFYGSTYWYFDVWGAGTT
VL: DIVMTQSPSSLDVSVGEKVSMSCKSSQSLLYRSNQKNYLAWYQQKPGQSPRLLIYWASTRESGVPDRFTGSGSGTDFTLTISSVKAEDLAVYYCQQYYSYSTFGAGTKVELK
notes: Mouse variable regions cloned into human IgG expression vectors (pIgGH, pKVA2); Biotinylated where used as detection antibody; also called clone #87; IgG#87
In assay [3], B3 yielded a dissociation constant (Kd) of 0.0343 nM.

B4: anti-1C10 idiotype antibody #102 (IgG) (antibody, V domains shown)
VH: EVKLLESGGGLVQPGISLKLSCAASGFDFTRDWMSWVRQAPGKGLEWIGEINPDSSAINYTPSLRDKFIISRDNAKNTLYLQMSKVRSEDTALYYCARRGYYGYYLDYWGQGTTLTVSS
VL: DIVMTQSPSSLAVSVGEKVTMSCKSSQSLFFRSNQKNYLAWYQQKPGQSPKLLIYWASTGESGVPDRFTGSGSGTDFTLTISSVKAEDLAVYYCQQYYSYPTFGGGTKLEIK
notes: Mouse variable regions cloned into human IgG expression vectors (pIgGH, pKVA2)
B4: the binding result in assay [2] is recorded as “binds”.
